For orientation: koff means a measure of how fast the partners let go of each other. For orientation: EC50 means the concentration at which the effect is half-maximal. Low values mean higher potency in that assay, high ones lower potency in that assay. A word on the IC50: it is the midpoint of a concentration-inhibition curve.

Experiment [1] deals with T1, recombinant dimeric c-Met (R&D systems, 358-MT/CF) (human, UniProt P08581 25-932).
T1 construct: Bought product; also called Fc-Met; recombinant c-Met
T1 sequence (P08581 25-932 limits assumed): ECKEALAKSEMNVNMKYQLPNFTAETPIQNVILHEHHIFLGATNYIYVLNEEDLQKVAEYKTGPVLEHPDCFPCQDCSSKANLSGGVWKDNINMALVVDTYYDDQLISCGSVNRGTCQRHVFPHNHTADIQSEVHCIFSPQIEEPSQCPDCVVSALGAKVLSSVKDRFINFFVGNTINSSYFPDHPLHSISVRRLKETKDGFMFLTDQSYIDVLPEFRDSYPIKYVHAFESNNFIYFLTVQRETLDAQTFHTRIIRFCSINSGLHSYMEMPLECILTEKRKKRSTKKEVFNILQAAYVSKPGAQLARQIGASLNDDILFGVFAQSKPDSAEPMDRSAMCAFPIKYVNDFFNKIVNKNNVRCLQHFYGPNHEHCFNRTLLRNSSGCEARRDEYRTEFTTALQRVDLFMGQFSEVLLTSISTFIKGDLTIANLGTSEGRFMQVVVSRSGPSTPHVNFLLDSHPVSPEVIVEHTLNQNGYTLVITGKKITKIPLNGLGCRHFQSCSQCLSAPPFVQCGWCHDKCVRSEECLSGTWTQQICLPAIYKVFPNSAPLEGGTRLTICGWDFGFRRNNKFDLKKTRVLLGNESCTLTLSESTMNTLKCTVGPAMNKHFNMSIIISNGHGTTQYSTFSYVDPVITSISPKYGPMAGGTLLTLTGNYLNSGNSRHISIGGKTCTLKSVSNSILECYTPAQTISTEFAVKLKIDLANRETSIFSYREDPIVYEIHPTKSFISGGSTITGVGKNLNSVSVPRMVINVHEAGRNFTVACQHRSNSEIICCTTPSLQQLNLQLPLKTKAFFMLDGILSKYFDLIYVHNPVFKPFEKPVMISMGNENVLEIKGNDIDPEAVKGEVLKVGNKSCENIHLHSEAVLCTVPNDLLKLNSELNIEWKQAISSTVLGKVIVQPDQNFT
Nature of the experiment: competition ELISA: recombinant dimeric c-Met (100 ng/ml) captured by coated mouse anti-His antibody; antibody dilutions 30 min, then 25 ng/ml N-terminally biotinylated HGF (the competitor); strep-HRP, TMB, 620 nm; percent competition against the controls. How it is done: (§1) Competition with N-terminally biotinylated HGF for binding to immobilized c-Met was performed using an ELISA-based competition assay. Five μg/ml mouse anti-His antibodies (Serotech) was immobilized on a maxisorb plate and, after blocking with 1% casein in PBS for 2 h, 100 ng/ml recombinant dimeric c-Met was added and incubated for 1 h at room temperature. After washing, dilutions of the antibodies were added and allowed to bind to the captured c-Met for 30 minutes, before 25 ng/ml N-terminally biotinylated HGF (R&D systems, 294-HGN/CF) was added. Biotinylated HGF was incubated at room temperature for 1 h before washing. Horseradish-conjugated streptavidin (strep-HRP) was added and incubated for an additional hour. TMB was added and the plate read at 620 nm. An isotype control (hIgG1λ) was included as a control as well as murine 5D5 antibody. Competition was expressed as percentage competition as compared to the controls (strep-HRP only or hIgG1λ) and plotted against the concentration of antibodies. An IC₅₀ was calculated using GraphPad Prism (Table 10). Antibodies 13E6 and 20A11 only displaced HGF partially (about 50%), which may be related to the epitope these two mAbs recognize on the c-Met.
A general note: ELISA stands for enzyme-linked immunosorbent assay.

Experiment [2] concerns the target T1, recombinant dimeric c-Met (R&D systems, …). Nature of the experiment: SPR, Fab-containing periplasmic extract over immobilised c-Met, dissociation 2 min. The method, then: HGF-competing clones were sequenced in the VH and the VL regions and divided into VH families based on the sequence of the CDR3 in the VH. These VH families were further tested with Surface Plasmon Resonance (SPR) for dissociation (koff) and recognition of SEMA-PSI or the extracellular domain of c-Met (Decoy). Between 1000-2000 RU of dimeric c-Met, SEMA-PSI or Decoy c-Met was immobilised on a VIA chip with amine coupling in sodium acetate buffer (pH 4.5). The Fab-containing peris were added with a flow rate of 30 μl/min and Fabs were considered to be binding if an increase of the RU was observed. The koff was measured for 2 minutes for each sample.

In experiment [3] the target is T2, Decoy c-Met (extracellular domain of human c-Met) (human, UniProt P08581 25-932).
T2 construct: extracellular domain; also called Decoy Met; monomeric Decoy Met
T2 sequence (P08581 25-932): as the sequence (P08581 25-932 limits assumed) above
Nature of the experiment: binding ELISA, human c-Met (Decoy).

Experiment [4] has as its target T3, Rhesus (Maccaca mulatta, US20090191580-5) c-Met ECD (Rhesus (Maccaca mulatta)).
T3 construct: extracellular domain; also called Rhesus c-Met ECD; Rhesus ECD
Nature of the experiment: binding ELISA, Rhesus c-Met ECD immobilised (1 µg/ml). The method, then:
Cross reactivity to Rhesus (Maccaca mulatta, US20090191580_{—}5) c-Met ECD and mouse c-Met (R&D systems cat no: 527-ME) was performed in a binding ELISA. Rhesus ECD was immobilized in PBS (1 μg/ml) on a 96-well maxisorb plate and incubated at 4° C. over night. After blocking with 1% casein in PBS, the antibodies in dilutions starting with 10 μg/ml were added and allowed to bind for 1 h at room temperature. The plate was washed and a goat anti-human Fcγ antibody (Jackson) was added and incubated for 1 h at room temperature. After washing, TMB was added and the plate read at 620 nm

Experiment [5] concerns the target T1, recombinant dimeric c-Met (R&D systems, …). Nature of the experiment: competition ELISA, mAb against 25 ng/ml biotinylated HGF on captured dimeric c-Met. The method, then:
as §1

The target is the same in experiment [6]. Nature of the experiment: SPR, periplasmic Fab over Fc-Met (around 3000 RU) on CM5 chip. How it is done: The clones were then tested for their dissociation constants by Surface Plasmon Resonance. Around 3000 RU of Fc-Met was immobilized directly onto a CM5 chip to obtain a clear binding profile from the periplasmic extracts. Clones with an improved off-rate were sent for sequencing.

The target in experiment [7] is T2, Decoy c-Met (extracellular domain of …). Nature of the experiment: SPR: mAb (0.5 µg/ml) kept 1 h at the given temperature, run over a CM-5 chip coupled with 15,000-17,000 RU Decoy c-Met; slope between 100 and 130 s at 30 µl/min in percent of the sample kept at 4 °C.

Numbering of substitutions follows the chain as printed.

B1: murine 5D5 antibody (antibody, V domains shown)
VH: QVQLQQSGPELVRPGASVKMSCRASGYTFTSYWLHWVKQRPGQGLEWIGMIDPSNSDTRFNPNFKDKATLNVDRSSNTAYMLLSSLTSADSAVYYCATYGSYVSPLDYWGQGTSVTVSS
VL: DIMMSQSPSSLTVSVGEKVTVSCKSSQSLLYTSSQKNYLAWYQQKPGQSPKLLIYWASTRESGVPDRFTGSGSGTDFTLTITSVKADDLAVYYCQQYYAYPWTFGGGTKLEIK
B1: in experiment [1], the “IC50 (read off the curve)” value was approximately 800 pM.

B2: 40B8 Fab (Fab, V domains shown)
VH: EVQLVQPGAELRNPGASVKVSCKASGYTFTNYVIDWVRQAPGQGLEWMGRIDPENGGTRYAQKFQGRVTFTADTSTSTAYVELSNLRSEDTAVYYCARLEDYELAYDYWGQGTQVTVSS
VL: DIVMTQTPSSVTASAGEKVTINCKSSQSVLLSSNQKNYLAWYQQRLGQSPRLLIYWASTRESGVPDRFSGSGSTTDFTLTISSFQPEDAAVYYCQQGVSFPLTFGQGTKVELK
notes: Fab from the phage display library, tested as periplasmic extract
For the molecule B2, the dissociation rate constant (koff) in experiment [2] stood at 0.0013 s⁻¹.

B3: 12G4 mAb (antibody, V domains shown)
VH: QLQLVESGGGMAQPGGSLKLSCAASGFTFDDYAMTWVRQAPGKGLEWLSTISWNDINTYYAESMKDRFTISRDNAKNTLYLQMNSLESEDTAVYYCAKRRDNYYGTSGEYDYWGQGTQVTVSS
VL: QSALTQPPSVSGTLGKTVTISCAGTSSDIGNYNYVSWYQQLPGTAPKLLIYEVNKRPSGIPDRFSGSKSGNTASLSISGLQSEDEADYYCASYRSSNNVVFGGGTKLTVL
With B3, the half-maximal effective concentration (EC50) in experiment [3] came out at 0.42 nM; in experiment [4], 0.34 nM. Further, the IC50 in experiment [5] was determined as 0.26 nM.

B4: 20A11 Fab (Fab, V domains shown)
VH: QVQLVESGGGLVQPGGSLRLSCAASGFTFDDYAMSWVRQAPGKGLEWVSAISWNGSSTYYAESMKGRFTISRDNAKNTLYLQMNSLKSEDTAVYYCAKDLIGSHDYWGQGTQVTVSS
VL: QAVLTQPPSVSGTLGKTLTISCAGTSSDVGYGNYVSWYQQLPGTAPKLLIYAVSTRASGIPDRFSGSKSGNTASLTISGLQSEDEADYYCASYRSSNNYAFGAGTKLTVL
notes: as for B2
Turning to B4, the koff in experiment [2] is 0.0009 s⁻¹.

B5: 20F1 Fab (Fab, V domains shown)
VH: EVQVQESGPGLVKPSQTLSLTCTVSGGSMTGNYYAWSWIRQPPGKGLEWMGVIAYDGSTYYSPSLKSRTSISRDTSKNQFSLQLSSVSPEDTAVYYCARGPGWYSGSRNDYWGQGTQVTVSS
VL: QSALTQPPSVSGSPGKTVTISCTGTNSDVGYGNYVSWYQQLPGMAPKLLIYDVNRRASGIADRFSGSKSGNTASLTISGLQSEDEGDYHCASYRSANNAVFGGGTHLFVL
notes: as for B2
Consider B5, for which, in experiment [2], the koff came to 0.0069 s⁻¹.

B6: 20F1 mAb (antibody, V domains shown)
VH: B5 VH
VL: B5 VL
In the case of B6, in experiment [5], the half-maximal inhibitory concentration (IC50) came to 0.36 nM.

B7: 38H10 mAb (antibody, V domains shown)
VH: EVQLVQPGVELRNPGASVKVSCKASGYIFTMNSIDWVRQAPGQGLEWMGRIDPEDGGTKYAQKFQGRVTFTADTSTSTAYVELNSLRSEDTAVYYCARVDDYYLGYDYWGQGTQVTVSS
VL: EIVMTQSPSSVTASAGEKVTINCKSSQSVLWRSNQKNYLAWYQQRLGQSPRLLISWASIRESGVPDRFSGSGSTTDFTLTISSFQPEDAAVYYCQQGYSFPYTFGSGTRLEIK
Turning to B7, the EC50 came out at 0.19 nM in experiment [3] and 0.17 nM in experiment [4]. In experiment [1], the “IC50 (read off the curve)” value is approximately 30 pM.

B8: 38H10 Fab (Fab, V domains shown)
VH: B7 VH
VL: B7 VL
notes: as for B2
Turning to B8, the dissociation rate constant (koff) was found to be 0.0005 s⁻¹ in experiment [6] and 0.0012 s⁻¹ in experiment [2].

B9: 53E3 (antibody, V domains shown)
VH: QVQLQESGPGLVKPSQTLSLTCTVSGGSITTNYYYWSWIRQSPGKGLEWIGVIAYEGSTDYSPSLKSRVTISRDTSKNQFSLQLSSVTAEDTAVYYCARDVRVIATGWATANALDAWGQGTLVTVSS
VL: QSVLTQPPSVSGSPGQTVTISCAGTSSDVGYGNYVSWYQQLPGTAPKLMIFAVSYRASGIPDRFSGSKSGNTASLTISGLQSEDEADYYCASYRSSNNAAVFGGGTKLTVL
notes: also called germlined variant of 36C4
Regarding B9, the binding result in experiment [7] was “binds”.

B10: 36C4 Fab (Fab, V domains shown)
VH: B9 VH with Q5V, T23A, I50M, E56D, V69T, T70S, A89P
VL: B9 VL with Q16K, M49L, S74F, K107H
notes: as for B2
As to B10, the koff in experiment [2] turned out to be 0.00064 s⁻¹.

B11: 55A12-54E (antibody, V domains shown)
VH: B9 VH with Q5V, T30S, Q83K
VL: B9 VL with V3A, T17S, L41P, M49L, I60V, S82A
notes: as for B9
Take B11: the binding result in experiment [7] is recorded as “binds”.

B12: 53A11 (antibody, V domains shown)
VH: B9 VH with E56D, G57A
VL: B9 VL with L41P, S74F
notes: as for B9
Consider B12, for which the binding result in experiment [7] was “binds”.

B13: 34H7 mAb (antibody, V domains shown)
VH: ELQLVESGGALVQPGGSLRLSCVESGFTFSSYAMSWVRQAPGKGLEWVSGIYKGGGPKYANSVKGRFTISRDNAKNTLYLQMNSLKPEDTAVYYCAKSGYGSSLGDFGSWGQGTQVTVSS
VL: QAGLTQLSSMSGSPGQTVTITCTGSSSNIGGGYYLSWYQHLPGTAPKLLIYSNINRASGVPDRFSGSTSGISASLTITGLQAEDEADYYCSSWDDSVSGPVFGGGTSLTVL
Turning to B13, the “IC50 (read off the curve)” value in experiment [1] was approximately 200 pM.

B14: 34H7 Fab (Fab, V domains shown)
VH: B13 VH
VL: B13 VL
notes: as for B2
Take B14: in experiment [2], the koff was found to be 0.0016 s⁻¹.

For the origin of these results see patent US20120148607A1 (ARGEN X N V, published 2012).
